Experimental data published in publication PMC4447404.
“And” between values parts separate entries of the source, which are not always exact repeats. Equal values may be shown once.

Tested on: DnaA-his (Bacillus subtilis)
Test: IDAP-Seq (affinity pull-down)
Details: 40 mM HEPES-KOH pH 7.6, 150 mM K-glutamate, 2.5 mM ATP or ADP, 10 mM Mg acetate, 0.2 mM DTT, 50 ug/ml BSA, 0.1 mM EDTA, 20% glycerol, 4% sucrose, 0.2 mg/ml …

Row | Substance | Kd | binding signal (fold ATP/ADP DNA recovered) (550 nM DnaA)
1 | codV internal (peak 9) | 1100 nM and 1900 nM | 
2 | gcp/ydiF downstream (peak 4) | 150 nM and 330 nM | 
3 | ggaA internal (peak 18) | 2700 nM and 4800 nM | 
4 | oriC dnaA-dnaN (peak 2) | 160 nM and 300 nM | 
5 | oriC upstream of dnaA (peak 1) | 210 nM and 330 nM | 
6 | rlmCD internal (peak 20) | 7500 nM and 6700 nM | 
7 | rplB internal (peak 10) | 1400 nM and 1200 nM | 
8 | trmE upstream / jag downstream (peak 5) | 330 nM and 430 nM | 
9 | yhcA internal (peak 12) | 3600 nM and 2800 nM | 
10 | yhcN internal (peak 15) | 19400 nM and 6900 nM | 
11 | yhdF internal |  | 24
12 | ynaI downstream / xynP upstream (peak 11) | 2000 nM and 3000 nM | 
13 | yopH internal (peak 19) | 4900 nM and 5000 nM | 
14 | yorF internal (peak 13) | 2000 nM and 3000 nM | 
15 | yqeG/sda upstream (peak 7) | 150 nM and 510 nM | 
16 | yutJ internal (peak 16) | 2500 nM and 2900 nM | 
17 | yvmC/yvmB upstream (peak 14) | 2200 nM and 4400 nM | 
18 | ywcI/vpr upstream (peak 3) | 130 nM and 170 nM | 
19 | ywlC upstream / ywlB downstream (peak 6) | 250 nM and 450 nM | 
20 | yydA upstream / yyzF downstream (peak 8) | 160 nM and 330 nM | 
21 | yydH internal (peak 17) | 2400 nM and 4600 nM | 
